Measured values as given in patent US20230013784A1 (JIANGSU HENGRUI MEDICINE, published 2023).

T1: human CEA protein on the cell surface of MKN45 human gastric cancer cells (human, UniProt P06731 35-685)
T1 construct: whole, on cells; GPI-anchored glycoprotein; also called CEACAM-5; CD66e
T1 sequence (looked up): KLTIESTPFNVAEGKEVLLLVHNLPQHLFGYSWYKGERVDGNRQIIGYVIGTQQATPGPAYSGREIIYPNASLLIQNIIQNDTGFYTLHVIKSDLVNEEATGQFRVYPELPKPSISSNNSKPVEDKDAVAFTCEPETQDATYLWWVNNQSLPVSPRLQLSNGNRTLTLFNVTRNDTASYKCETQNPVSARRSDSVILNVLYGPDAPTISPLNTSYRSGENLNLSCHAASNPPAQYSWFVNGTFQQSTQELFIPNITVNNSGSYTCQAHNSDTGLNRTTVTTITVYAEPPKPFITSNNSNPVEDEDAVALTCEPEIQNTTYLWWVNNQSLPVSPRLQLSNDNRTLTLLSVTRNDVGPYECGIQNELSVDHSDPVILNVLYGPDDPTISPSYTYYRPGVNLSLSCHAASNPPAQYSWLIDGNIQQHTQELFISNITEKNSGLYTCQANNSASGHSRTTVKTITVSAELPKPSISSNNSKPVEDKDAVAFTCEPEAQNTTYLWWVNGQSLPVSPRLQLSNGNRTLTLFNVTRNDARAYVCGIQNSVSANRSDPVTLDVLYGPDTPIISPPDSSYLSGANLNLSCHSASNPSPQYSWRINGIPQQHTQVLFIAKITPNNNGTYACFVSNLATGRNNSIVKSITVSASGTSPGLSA

B1: mAb63 (antibody, V domains shown)
VH: EVQLQQSGPELVKPGASVKMSCKASGYTFTDFYMNWVRQSHGKSLEWIGDIFPKNGNTDYNRKFKDKATLTVDKSSNTVYMEFRSLTLEDSAIYFCARSGYGNYVFDYWGQGTIFTVSS
VL: DVQMTQTPSALSASLGDRVTISCRTSQDINIYLNWYQQKPDGTVKLLIYYRSGLLSGVPSRFSGSGSGTDYSLTISNLEPEDIATYFCQQGNTLPPTFGGGTKLEIK
notes: murine hybridoma antibody
B2: mAb103 (antibody, V domains shown)
VH: QIQLVQSGPELKKPGETVKISCKASGYTFTTYGVIWVKQAPGKGLKWMGWINTYSGVPTYADDFKGRFAFSLETSASTAFLQINNLKNEDTATYFCARKKTLTTVTPWFAYWGQGTLVTVSA
VL: DLVVTQSSSASFSLGASAKLTCTLSSQHSTYTIEWYQQQPLKPPKYVMELKKDGSHSTGDGIPDRFSGSSSGADRYLTISNIQPEDEAIYICGVGNTIKEQFVYVFGGGTKVTVL
notes: murine hybridoma antibody
B3: mAb47 (antibody, V domains shown)
VH: QIQLVQSGPELKKPGETVKISCKASGYTFTTYGMSWVKQAPGKGLKWMGWINTYSGVPTYADDFKGRFAFSLETSASTAYLQINNLKNEDTATYFCARRGNYGRWDFDVWGTGTTVTVSS
VL: EIVLTQSPALMAASPGEKVTITCSVSSTISSSNLHWYQQKSETSPKPWIYGTSNLASGVPVRFSGSGSGTSYSLTISSMEAEDAATYYCQQWSIYPLTFGAGTKLELK
notes: murine hybridoma antibody

These binders were tested against T1, human CEA protein on the cell surface … (assay: FACS on MKN45; with/without 5 ug/ml sCEA as competitor).
Protocol: In order to detect whether the antibody preferentially binds to CEA present on the surface of cell membrane in the presence of sCEA (as shown in SEQ ID NO:1), the inventors pre-incubated a gradient of diluted antibodies with a certain concentration of sCEA (5 μg/ml) for 30 min, then MKN45 cells were collected (human gastric cancer cells, Nanjing Kebai Biotechnology Co., Ltd., Cat #CBP60488) and loaded into 96-well plate. The gradient of diluted antibodies as well as the mixture of pre-incubated antibody and sCEA were separately added to each well, incubated at 4° C. for 60 min and centrifuged to remove the supernatant. Pre-cooled PBS containing a final concentration of 10% FBS was added to wash the cells, repeated twice. 50 μl of 1:200 diluted secondary antibody Alexa Fluor@488 goat anti-human IgG (H+L) (Lifetechologies, Cat #A11013) was added, incubated at 4° C. in dark for 45 min and centrifuged to remove the supernatant. 250 μl of pre-cooled PBS containing a final concentration of 10% FBS was added to wash the cells; repeated twice. 100 μl of pre-cooled PBS was added to each well for resuspension. Flow cytometer (FACS) was used for detection to obtain the fluorescence signal value.
For B1, the “maximum fluorescence signal ratio (without sCEA v.s. with sCEA)” value was 1.43. B2 was tested, and the “maximum fluorescence signal ratio (without sCEA v.s. with sCEA)” value was 1.02. For B3, the “maximum fluorescence signal ratio (without sCEA v.s. with sCEA)” value was 1.08.
